# Measured values: publication PMC2650008
# T1: PpPutA45 (Pseudomonas putida, UniProt Q9R9T7 1-45)
# T1 chain: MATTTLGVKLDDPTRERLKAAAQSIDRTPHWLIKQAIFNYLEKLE
# B1: O2-12 (dsDNA)
# DNA 1: GCGGTTGCACCT
# DNA 2: AGGTGCAACCGC
# Target: T1, PpPutA45
# Experiment: EMSA
binder,measurement,value
B1,binding result,no binding
